Data taken from publication PMC2682783.

Key:
[1] = biological target: urea transporter ApUT from Actinobacillus pleuropneumoniae (Actinobacillus pleuropneumoniae); test: native gel or EMSA
[2] = biological target: urea transporter ApUT from Actinobacillus pleuropneumoniae (Actinobacillus pleuropneumoniae); test: cross-linking
[3] = biological target: urea transporter ApUT from Actinobacillus pleuropneumoniae (Actinobacillus pleuropneumoniae); test: electron microscopy of negatively stained 2D crystals

stoichiometry N [1]: 2
stoichiometry N [2]: 2
stoichiometry N [3]: 2
Substance: urea transporter ApUT from Actinobacillus pleuropneumoniae (from UniProt A0A2Z6AQW9 1-300) (natural protein)
